# Test results taken from the nanobody polyreactivity screen of Harvey et al. (2022).
# Assay: yeast display, Sf9 membrane polyspecificity reagent, FACS + sequencing; frameworks hold sequencing errors
# In short: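 In a synthetic yeast display library (Saccharomyces cerevisiae BJ5465), nanobody expression was induced with galactose for 36–48 hours. FACS gates were set low and high (top ~1%) using anti-HA fluorescence for expression and streptavidin fluorescence for binding of the Sf9 membrane reagent. Each polyreactivity label is drawn from the gate of origin.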
row,Sequence,polyreactivity (PSR sort gate)
1,QVQLVESGGGLVQAGGSLRLSCAASGSTFYPYAMGWYRQAPGKERELVAAINWSGGTTYYADSVKGRFTISRDNAKNTVYLQLNSLKPEDTAVYYCAADGYPPGYGYWGQGTQVTVSS,low polyreactivity
2,QVQLVESGGGLVQAGGSLRLSCAASGLTFVPNAMGWYRQAPGKERELFAAISNNGGRTYYADSVKGRFTISRDNAKNTVYLQMNSLKPEDTAVYYCANYLSPGERHSYDYWGQGTKVTVSS,high polyreactivity
3,QVQLVESGGGLVQAGRSLRLSCAASGRSFKYYPMGWYRQAPGKERELVARISRSSGNTYYADSVKGRFTISRDTAKNTVYLQMNSLKAEDTAVYFCATVPHYNGFNYWGQGTQVTVSS,high polyreactivity
4,QVQLVESGGGLVQAGGSLRLSCAASGSTFRLYTMGWYRQAPGKERELVASIRGSGGRTYYADSVKGRFTISRDNAKNTVYLQMNSLKPEDTAVYYCNAESYSTWSFGHRYEYDYWGQGTQVTVSS,low polyreactivity
5,QFQLVESGGGLVQAGGSLRLSCAPSGGTFGSNAMGWYRQAPGKERELVAAISTTGGTTYYADSVKGRFTISRDNAKNTVYLQMNSLKPEDTAVYYCAKDGYVYGDWYTYAYVYWGQGTQVTVSS,low polyreactivity
6,QVQLVESGGGLVQAGGSLRLSCAASGRIFSLYAMGWYRQAPGKDRELVAAISRGGSTYYADSVKGRFTISRDNAKNTVYLQMNSLKPEDTAVSYCARRYWYPDAFYRYDYWGQGTQVTVSS,low polyreactivity
7,QVQLVESGGGLVQAGGSLRLSCAASGIIFGRYTMGWYRQAPGKERELVAAITSSGITYYADSVKGRFTISRDNAKNTVYLQMNSLKPEDTAVYYCAAEYNWYDYWGQGTQVTVSS,low polyreactivity
8,QVQLVESGGGLVQAGGSLRLSCAASGRTFRTYAMGWYRQAPGKETELVAANSSGGSTNYADSVKGRFTISRDNEKNTVYLQMNSLKPEDTAVYYCATRPTSDFVKRRVYEWLDYWGQGTQVTVSS,low polyreactivity
9,QVQLVESGGGLVQAGGSLRLSCAASGRIFGAYAMGWYRQAPGKERELVAAITGGGSTYYADSVKGRFTISRDNAKTTVYLQMKSLKPEDTAVYYCAADYYWTYSYYYERFDYWGQGTQVTVSS,low polyreactivity
10,QVQLVESGGGLFQAGGSLRLSCAASGFTFVDYAMAWYRQAPGKERELVAAITVSGDSTYYADSVKGRFTISRDNAKNTVYLQMNSLKRADTAFYYCAADPGYYYGGYWGQGTQVTVST,low polyreactivity
11,QVQLVESGGFLVQAGGSLRLSCAASGFTFAKYAMGWSRQAPRKERELVAVITSSGGRTYYADSVKARFTISRDTAKNTVYLQMISLKPEDTAVYYCNAGKYVYATSQYDYWGQGTQVTVSS,high polyreactivity
12,QVELVESGGGLVQAGGSLRLSCAASGSTFSINAMGWYRQAPGKERELVADITWRGVRTYYADSVKGRFTISRDNAKNTVYLQMNSLKPEDTAVYYCAADVVVDGHPGFDYWGQGTQVTVSS,high polyreactivity
13,QVQLVESGGGLVQAGGSLRLSCAASGRIFPGYAMGWYRQAPGKERELVASISRTGRTNYADSVKGRFTISRDNAKNTVYLQMNSLKPEDTAVYYCAAEYYHSSYGYGYWGQGTQVTVSS,low polyreactivity
14,QDQLGESGGGLVQAGGSLRLSCAASGFTFWWYAMGWYRQAPGKERELVAGITSGASTYYADSVKGRYTISRDNAKNTVYIQMNSLKPEDTAVYYCAADWLGWYQPYDYWGQGTQVTVSS,low polyreactivity
15,QFQLVESGGGLVQAGGSLRLSCAASGSILDGNTMGWYRQAPGKERELVDAISSLATSTYYADSVKGRFTISRDNAKNTVYLQINSLKPEDTAVYYCAALVRRKRTTSGDDYWGQGTQVTVSS,high polyreactivity
16,QVQLVESGGGLVQAGGSLRLSCAASGFIFYRYAMGWYRQAPGNERELVAAISRSGGSTYYADSVKGRFTISRDNAKNTVYLQMNSLKPEDTAVYYCATPGQRKLYLVNYLGQGTQVTVSS,low polyreactivity
17,QVQLVESGGGLVQAGGSLRLSCAASGITFLYYAMGWYRQAPGKERELVAAISGGGASTYYADSVKGRFTSSRDNAKNTVYLQMNSLKPEDTAVYDCAAGYRDFFRARFGYWGQGTQVTVAS,high polyreactivity
18,QVQLVESGGGLVQAGGSLRLSCAASGRTFHGYAMRWYRQAPGKDRELVAAITSSGARTYYADSVKGRFTISRDNAKNTVYLQMNSLKPEDTACYYCNAEYYSTWYRFDYWGQGTQVTVSS,high polyreactivity
19,QVQLVESGGGLVQAGGSLRLSCAASGRIFSRYAMGWYRQAPGKERELVAAINWSGGSTYYADSVKGRFTISRDNAKNTVYLQMNSLKPEDTAVYYCAADIYPLAIGAFRDDYWGQGTQVTVSS,low polyreactivity
20,QVQLVESGGGLVQAGGSLRLSCAASGNIFGSNAMGWYRQAPGKERELVAAISGSNGGTYYADSVKGRFTISRDNAKNTVYLQMNSLKPEDTAVYYCNADFFSRWGYRYMDYWGQGTQVTVSS,low polyreactivity
21,QVQLVESGGGLVQAGGSLRLSCAASGSIQTRNAMGWYRQAPGKERELVAAITGSGGRTYYADSVKGRFTISRDNAKNTVYLQMNSLKPEDTAVYYCATRYGREDYWGQVTQVTVSS,high polyreactivity

row,Sequence,polyreactivity (PSR sort gate)
1,QVQLVESGGGLVQAGGSLRLSCAASGRIFYYYAMGWYRQAPGKERELVATITTSGKTYYADSVKGRFTISRDNAKNTVYLQMNSLKPEDTAVYYCNAGWDLVYGYYPRRKNFDYWGQGTKVTVSS,high polyreactivity
2,QVQLVESGRGLVQAGGSLRLSCAPSGYIFAANAMGWYRQAPGKERELVAAISASGGSTYYADSVKGRFTISRDNAKNTVYLQMNSLKPEDTAVYYCYVVSDSRLYYRYAYDYWGQGTQVTVSS,high polyreactivity
3,QVHLVESGGGLVQAGGSLRLSCAASGRTFDYNAMGWYRQATGKERELVAAIRFGGGSTYYADSVKGRFTISRDNAKNTVYLQMNSLKPEDTAVYYCNASPLWIGWEIVPVGSSHYDYWGQGTQVTVSS,low polyreactivity
4,QVQLGESGGGLVQAGGSLRLSFAASGRISKRNDRGWSRQAPGKERELVAGITSTGSTSYAHSVKGRFTISRDNAKKTVYLQMNSLKPEDTAVYYCAARGQATYNWGQGTQVTVSS,high polyreactivity
5,QVQLVESGGGLVQAGGSLRLSCAASGLIFYYYAMGWYRQAPGQERELVAAITSDDRTYYADSVKGRFTISRDNAKNTVYLQMNSLKPEDTAVYYCAARYHGYLPQYRKYGYGYWGQGTQVTVSS,high polyreactivity
6,QDKLVESGGGLVQAGGSLRLSCAASGSTSRDNAMVWYRQAPGKERELVAAITVIDGTTYYADSVKGRFTISRDNAKNTLYLQMNSLKPEDTAVYYCAADTIWFEYYYWGQGTQVTVSS,low polyreactivity
7,QVQLQESGGGLVRAGGSLSLSCAASGTIFGQFYMGRYRQAPGKEREFVATINYGSSTNYADSVKGRYTISRDNAKNTVYLQMNSLKPEDTAVYYCNTDFFYYGYNFPYFDYDYWGQGSQVTVSS,low polyreactivity
8,QVQLVESGGGLVQAGGSLRLSCAASGNTLRPNGMGWYRQAPGKERELVAAISSGGSPYYADSVKGRFTISRDNAKNTVYLQMNSLKPEDTAVYYCAAEYWYDYWGQGTQVTVSS,low polyreactivity
9,QVQLVESGGGLVQAGGSLRLSCAASGRTFKYNAMGWYRQAPGKERELVAAISSDDSTNYADSVKGRFTISRDNAKNTVYLQMNSLKPEDTAVYYCAARYGYSKWPDRVQAYKHDYWGQGTQVTVSS,low polyreactivity
10,QVQLVESGGGLVQAGGSLRLSCAASGSIFTYYAMGWYRQAPGKERELVAAISLDGGSTYYADSVKGRFTISRDNAKNTVYLQMNSLKPEDTAVYYCAAYPTYPDEYWGQGTQVTVSS,low polyreactivity
11,QVQLVESGGGLVQAGGSLRLSCAASGRTFGDYAMGWYRQAPGKERELVAAITIGGSTYYADSVKGRFTISRDNAKNTVYLQMNSLKPEDTAVYYCAATTYSIPSRYDSWGQGTQVTVSS,low polyreactivity
12,QVQLVESGGGLVQAGGSLRLSCAASGMIFPGNTMGWYRQAPGKERELVAAITNGVSTNYADSVKGRFTISRDNAKNTVYLQMNSLKPEDTAVYYCNGPFNYVGGYSNYSGFVYWGQGTQVTVSS,high polyreactivity
13,QVQLVESGGGLVQAGGSLRLSCAASGFTFRKYAMGWYRQAPGKERELVAGISWSGGTTYYADSVKGRFTISRDNAKNTVYLQMNSLKPEDTAVYYCNAKRVQVFAGYSYDYWGQGTQVTVSS,high polyreactivity
14,QVQLVESGGGLVQAGGSLRLSCAASGINFDDYAMGWYRQAPGTERELVAAITWNGGRTYYADSVKGRFTISRDNAKNTVYLKMNSLKPEDTEVYYCAARITNPAKYNYWGQGTQVTVSS,high polyreactivity
15,QVQLVESGGGLVQAGGSLRLSCAASGRIFLVYAMGWYRQAPGKEREIVASISWSGGSTSYADTVKGLFTISRDNAKNNVSLQMNSLKPEDTAVYYCNAIRRPIFFRGRYYWGQGTQVTVSS,low polyreactivity
16,QVQLVESGGGLVQAGGSLRLSCAASGSTSDINAMGLYRQAPGKERELVAVITDSSNTDYADSVKGRFTISRDNAKNTVYLQMNSLKPEDTAVYYCAADRDEPDPYDYWGQGTQVTVSS,low polyreactivity
17,QVQLVESAGGLVQAGGSLRLSCAASGSTFYPNAMGWYRQAPGKERELVAAISRGTRTKYADSVKGRFTISRDNAKNTVYLQMNSMKPEDTAVYYCAPLTYQSYWSVDGYYYWGQGTQVTVSS,high polyreactivity
18,QVQLVESGGGLVQAGGSLRLICAASGSTLFTYAMVWYRQAPGKERELVAAITSSGSTYYADSVKGRFTISRDNAKNTVYLQMNSLKQEDTAVYYCAVPGYRYTNYYYWGQGTQVTVSS,low polyreactivity
19,QVQLVESGGRLVQAGGSLRLSCAASGRIFGYYAMGWYRQAPGKERELVAAINYSGGSTYYADSVKGRFTISRDNAKNTVYLQMNSLKPEDTAVYYCNAVRYTLLYYWGQGTQVTVSS,high polyreactivity
20,QVQLVESGGGLLQAGGSLRLSCAASGSTYFGNAMGWDRQAPGKERELVAAITSGGSTNYADSVKGRFTISRDNAKNTVYLQMNSLKPEDTAVYYCAKPSRWGWTGFYAYDYWGQGTQVTVSS,low polyreactivity
